These results are taken from PMC8316464.

By Kd is commonly meant the constant that tells how readily two partners part at equilibrium.

What all share (assay): SPR; Biacore S200; Bcl-2 family proteins immobilised on CM5 (amine coupling or His-Capture Kit); peptides and flag-tagged proteins as analytes, single-cycle kinetics, HBS-EP, 25 °C; 1:1 Langmuir model; absence of binding probed at 100 nM and 3 µM
Assay [1] has as its target His-tagged human Mcl-1 (human) (UniProt Q07820).
A further assay deals with Bcl-xL (human) (UniProt Q07817).
Sequence of Bcl-xL (human) (Q07817 whole entry): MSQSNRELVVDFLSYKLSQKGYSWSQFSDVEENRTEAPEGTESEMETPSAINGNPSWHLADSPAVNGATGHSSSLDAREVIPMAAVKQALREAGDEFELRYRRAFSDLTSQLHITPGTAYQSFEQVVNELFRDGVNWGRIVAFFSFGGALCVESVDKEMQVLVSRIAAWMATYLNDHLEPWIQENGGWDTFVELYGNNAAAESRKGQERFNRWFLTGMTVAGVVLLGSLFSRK
The next assay concerns the target Bcl-2 (human) (UniProt P10415).

Sequence of Bim BH3 peptide (25-mer, residues 141-165) (peptide): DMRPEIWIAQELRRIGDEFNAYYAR
Sequence of His-tagged human Mcl-1 (human) (Q07820 whole entry): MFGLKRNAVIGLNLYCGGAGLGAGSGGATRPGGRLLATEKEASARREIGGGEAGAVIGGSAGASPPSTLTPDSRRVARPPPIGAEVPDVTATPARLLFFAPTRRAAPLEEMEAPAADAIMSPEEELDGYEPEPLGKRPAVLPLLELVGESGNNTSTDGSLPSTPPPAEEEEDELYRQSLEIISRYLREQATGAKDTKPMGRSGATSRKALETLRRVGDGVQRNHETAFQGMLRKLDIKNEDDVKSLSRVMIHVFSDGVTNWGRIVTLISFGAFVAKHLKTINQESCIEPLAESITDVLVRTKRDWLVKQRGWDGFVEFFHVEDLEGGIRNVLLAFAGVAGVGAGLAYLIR

Take Bim (A149I) peptide: the Kd in assay [1] was determined as 0.82 nM; in the assay with Bcl-xL (human) it was 12.2 nM; in the assay with Bcl-2 (human), 115 nM.
For “Bim BH3 peptide (25-mer, residues 141-165)”, the results for the Kd (in assay [1]; with Bcl-xL (human); with Bcl-2 (human)) were 0.37 nM, 3.3 nM and 14.2 nM, respectively.
